Test results reported in patent publication US20170247465A1, “COMBINATION THERAPY FOR TREATMENT OF CANCER” (OncoMed Pharmaceuticals, Inc., priority 2014, published 2017).
Entries after “also recorded” stand apart in the source; their conditions may differ.

Legend:
[1] = tested on: UM-PE13 breast tumor cells; assay: UM-PE13 breast tumor xenograft, staggered dosing of OMP-18R5 and paclitaxel (Example 2); type: in vivo, NOD/SCID mice
Experimental: FIG. 2. Inhibition of breast tumor growth in vivo by a Wnt pathway inhibitor in combination with a taxane using a staggered dosing schedule. UM-PE13 breast tumor cells were injected subcutaneously into NOD/SCID mice. […] OMP-18R5 was administered at 25 mg/kg and paclitaxel at 20 mg/kg. Agents were administered every three weeks and administered intraperitoneally. Data is shown as tumor volume (mm^3) over days post treatment.
Single cell suspensions of xenograft UM-PE13 breast tumor cells (20,000 cells) were injected subcutaneously into 6-8 week old NOD/SCID mice. UM-PE13 is a triple negative breast cancer. Tumors were allowed to grow 34 days until they reached an average volume of 80 mm^3. The mice were randomized (n=8 per group) and treated with paclitaxel, a combination of OMP-18R5 and paclitaxel administered on the same day, a combination of OMP-18R5 and paclitaxel where the paclitaxel was administered 3 days prior to OMP-18R5, a combination of OMP-18R5 and paclitaxel where OMP-18R5 was administered 3 days prior to the paclitaxel, or a control antibody. Mice were treated once every three weeks with OMP-18R5 at a dose of 25 mg/kg and paclitaxel at a dose of 20 mg/kg. OMP-18R5 and paclitaxel were administered intraperitoneally. Tumor growth was monitored and tumor volumes were measured with electronic calipers at the indicated time points. Data are expressed as mean±S.E.M.

[2] = Phase 1b study of vantictumab in combination with docetaxel in NSCLC patients / Phase 1 program; type: in vivo; conditions: Cohorts 1 and 2: vantictumab 5 and 10 mg/kg Day 1 of 21-day cycle with docetaxel 75 mg/m^2
Source text: The study is an open-label Phase 1b dose-escalation study of vantictumab in combination with docetaxel in patients with previously treated recurrent or advanced non-small cell lung cancer (NSCLC). The primary objectives of the study are to determine the safety and the maximum tolerated dose of vantictumab in combination with docetaxel. To identify a recommended Phase 2 dose for vantictumab in combination with docetaxel. The secondary objectives are to characterize the pharmacokinetics (PK) of vantictumab when administered in combination with docetaxel, to characterize the immunogenicity of vantictumab, and to make preliminary assessment of vantictumab efficacy when administered in combination with docetaxel.
Vantictumab is administered on Day 1 of each 21-day cycle. The dose levels of vantictumab for Cohorts 1 and 2 were 5 mg/kg and 10 mg/kg, respectively. For Cohorts 1 and 2, docetaxel (75 mg/m^2) is administered IV on Day 1 of each cycle. […] Patients of Cohorts 3 and 4 will be administered vantictumab at 2 mg/kg and 4 mg/kg once every 3 weeks, respectively. No dose escalation of vantictumab will be allowed within a dose cohort. A staggered dosing regimen will be evaluated in Cohorts 3 and 4. Docetaxel (75 mg/m^2) will be administered IV on Day 3 of each cycle.

[3] = tested on: OMP-LU77 lung tumor cells; assay: OMP-LU77 lung tumor xenograft, staggered dosing of vantictumab and paclitaxel (Example 6); type: in vivo, NOD/SCID mice; conditions: vantictumab 25 mg/kg administered two days prior to paclitaxel 15 mg/kg, every other week; versus same day, paclitaxel alone; FIG. 4
Experimental: FIG. 4. Inhibition of lung tumor growth in vivo by a Wnt pathway inhibitor in combination with a taxane using a staggered dosing schedule. OMP-LU77 lung tumor cells were injected subcutaneously into NOD/SCID mice. […] Vantictumab was administered at 25 mg/kg and paclitaxel at 15 mg/kg. Agents were administered every other week and administered intraperitoneally. Data is shown as tumor volume (mm^3) over days post treatment.
OMP-LU77 is a patient-derived non-small cell lung (NSCLC) tumor. Single cell suspensions of xenograft OMP-LU77 lung tumor cells (50,000 cells) were injected subcutaneously into NOD/SCID mice. Tumors were allowed to grow 37 days until they had reached an average volume of approximately 200 mm^3. Tumor-bearing mice were randomized into 4 groups (n=8-9 per group). […] Antibodies were dosed at 25 mg/kg, administered every other week. Paclitaxel was dosed at 15 mg/kg, also every other week. Tumor growth was monitored and tumor volumes were measured on the indicated days post-treatment. Data are expressed as mean±SEM.

[4] = tested on: OMP-OV40 ovarian tumor cells; assay: OMP-OV40 ovarian tumor xenograft, staggered dosing of Wnt inhibitors and paclitaxel (Example 11); type: in vivo, NOD/SCID mice; conditions: Wnt pathway inhibitor 25 mg/kg administered 2 days prior to paclitaxel 20 mg/kg, every two weeks i.p.; versus single agents; FIG. 9
Experimental: FIG. 9A-9B. Inhibition of ovarian tumor growth in vivo by a Wnt pathway inhibitor in combination with a taxane using a staggered dosing schedule. FIG. 9A. OMP-OV40 ovarian tumor cells were injected subcutaneously into NOD/SCID mice. Mice were treated with control antibody (-•-), OMP-18R5 (-▴-), paclitaxel (-▪-), or a combination of OMP-18R5 and paclitaxel, where OMP-18R5 was administered 2 days prior to administration of paclitaxel (-⋄-). […]. OMP-OV40 ovarian tumor cells were injected subcutaneously into NOD/SCID mice. Mice were treated with control antibody (-•-), OMP-54F28 (-▴-), paclitaxel (-▪-), or a combination of OMP-54F28 and paclitaxel, where OMP-54F28 was administered 2 days prior to administration of paclitaxel (-⋄-). OMP-18R5, OMP-54F28 and control antibody were administered at 25 mg/kg and paclitaxel was administered at 20 mg/kg. Agents were administered once every two weeks and administered intraperitoneally. Data is shown as tumor volume (mm^3) over days post treatment.
Single cell suspensions of xenograft OMP-OV40 ovarian tumor cells were injected subcutaneously into 6-8 week old NOD/SCID mice. Tumors were allowed to grow until they reached an average volume of approximately 128 mm^3. […] Tumor growth was monitored and tumor volumes were measured with electronic calipers at the indicated time points. Data are expressed as mean±S.E.M.

B1: OMP-18R5: anti-FZD antibody, IgG2, also known as vantictumab; heavy chain SEQ ID NO:3, light chain SEQ ID NO:4 (antibody)
heavy: EVQLVESGGGLVQPGGSLRLSCAASGFTFSHYTLSWVRQAPGKGLEWVSVISGDGSYTYYADSVKGRFTISSDNSKNTLYLQMNSLRAEDTAVYYCARNFIKYVFANWGQGTLVTVSSASTKGPSVFPLAPCSRSTSESTAALGCLVKDYFPEPVTVSWNSGALTSGVHTFPAVLQSSGLYSLSSVVTVPSSNFGTQTYTCNVDHKPSNTKVDKTVERKCCVECPPCPAPPVAGPSVFLFPPKPKDTLMISRTPEVTCVVVDVSHEDPEVQFNWYVDGVEVHNAKTKPREEQFNSTFRVVSVLTVVHQDWLNGKEYKCKVSNKGLPAPIEKTISKTKGQPREPQVYTLPPSREEMTKNQVSLTCLVKGFYPSDIAVEWESNGQPENNYKTTPPMLDSDGSFFLYSKLTVDKSRWQQGNVFSCSVMHEALHNHYTQKSLSLSPGK
light: DIELTQPPSVSVAPGQTARISCSGDNIGSFYVHWYQQKPGQAPVLVIYDKSNRPSGIPERFSGSNSGNTATLTISGTQAEDEADYYCQSYANTLSLVFGGGTKLTVLGQPKAAPSVTLFPPSSEELQANKATLVCLISDFYPGAVTVAWKADSSPVKAGVETTTPSKQSNNKYAASSYLSLTPEQWKSHRSYSCQVTHEGSTVEKTVAPTECS
[1]; OMP-18R5 25 mg/kg administered 3 days prior to paclitaxel 20 mg/kg, every three weeks i.p., versus same day, paclitaxel first, paclitaxel alone, FIG. 2
  inhibition of tumor growth (tumor volume): significantly better at inhibiting tumor growth of the UM-PE13 breast tumor cells than any of the other dosing regimens
[1]; Wnt pathway inhibitor (OMP-18R5) administered before the taxane (paclitaxel)
  tumor regression in individual mice: tumors in several of the individual mice regressed to undetectable levels
[2]
  adverse events leading to discontinuation: fragility fractures observed
[3]
  inhibition of tumor growth (tumor volume): significantly better at inhibiting tumor growth of the OMP-LU77 lung tumor cells than any of the other dosing regimens
[4]
  inhibition of tumor growth (tumor volume): inhibited tumor growth of the OMP-OV40 ovarian tumor cells to a greater extent than either the Wnt pathway inhibitors or paclitaxel alone; also recorded: inhibited tumor growth
